Data on 2 molecules can be found in patent US20220332813A1 (UNIVERSITY OF MARYLAND BALTIMORE, published 2022).

Assay [1] has as its target T1, human recombinant tau (2N4R) (human, UniProt P10636-8 1-441).
T1 construct: Radio-iodinated in the cell assays; also called monomeric tau; full-length tau (2N4R)
Nature of the assay: SPR, SorLA fragment 82-181 immobilised, increasing tau. On the technique in general: SPR reads the build-up and loss of mass on a sensor chip optically.

The target in assay [2] is T1, human recombinant tau (2N4R). Put plainly: SPR single cycle, VPS10P domain immobilised, 1:1 fit.
Assay [3] concerns the target T2, hyperphosphorylated 2N4R tau produced by Sf9 cells (human, UniProt P10636-8 1-441, hyperphosphorylated (produced in Sf9 insect cells, intermediate phosphorylation state); sites not stated).
T2 construct: His-tagged; also called SF9 tau; 2N4R SF9
The description is as above.

Assay [4] deals with T2, hyperphosphorylated 2N4R tau produced …. Put plainly: SPR equilibrium (KD eq, Req fit).
Assay [5] deals with T1, human recombinant tau (2N4R). Nature of the assay: SPR, from kinetic parameters of the 1:1 fit.
In assay [6] the target is T2, hyperphosphorylated 2N4R tau produced …. Nature of the assay: SPR, from kinetic parameters of the 1:1 fit.

T1 sequence (P10636 other isoform, or with tags, fused parts or gaps limits assumed): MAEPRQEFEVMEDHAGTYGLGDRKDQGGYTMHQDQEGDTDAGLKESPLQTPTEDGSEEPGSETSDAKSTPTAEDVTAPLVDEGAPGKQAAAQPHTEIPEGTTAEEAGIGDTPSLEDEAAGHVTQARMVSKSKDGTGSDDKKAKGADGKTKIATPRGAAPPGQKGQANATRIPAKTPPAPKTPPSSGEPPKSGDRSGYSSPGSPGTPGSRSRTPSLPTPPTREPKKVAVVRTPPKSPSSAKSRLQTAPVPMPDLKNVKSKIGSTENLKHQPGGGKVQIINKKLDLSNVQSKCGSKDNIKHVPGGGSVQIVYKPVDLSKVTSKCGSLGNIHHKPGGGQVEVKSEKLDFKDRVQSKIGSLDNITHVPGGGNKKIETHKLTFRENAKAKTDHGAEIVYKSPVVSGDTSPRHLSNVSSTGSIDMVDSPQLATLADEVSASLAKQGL
T2 sequence (P10636 other isoform, or with tags, fused parts or gaps limits assumed): as above

B1: commercially available fragment of SorLA comprising residues 82-181 (receptor)
chain: SAALQPEPIKVYGQVSLNDSHNQMVVHWAGEKSNVIVALARDSLALARPKSSDVYVSYDYGKSFKKISDKLNFGLGNRSEAVIAQFYHSPADNKRYIFAD
notes: The range may be a misprint for 82-753; also called SorLA fragment
A word on the Kd: it is the concentration at which binding is half-saturated. Take B1: in assay [1], the dissociation constant Kd was 40 nM.

B2: recombinant human SORLA VPS10P domain (residues 82-753) (receptor)
chain: SAALQPEPIKVYGQVSLNDSHNQMVVHWAGEKSNVIVALARDSLALARPKSSDVYVSYDYGKSFKKISDKLNFGLGNRSEAVIAQFYHSPADNKRYIFADAYAQYLWITFDFCNTLQGFSIPFRAADLLLHSKASNLLLGFDRSHPNKQLWKSDDFGQTWIMIQEHVKSFSWGIDPYDKPNTIYIERHEPSGYSTVFRSTDFFQSRENQEVILEEVRDFQLRDKYMFATKVVHLLGSEQQSSVQLWVSFGRKPMRAAQFVTRHPINEYYIADASEDQVFVCVSHSNNRTNLYISEAEGLKFSLSLENVLYYSPGGAGSDTLVRYFANEPFADFHRVEGLQGVYIATLINGSMNEENMRSVITFDKGGTWEFLQAPAFTGYGEKINCELSQGCSLHLAQRLSQLLNLQLRRMPILSKESAPGLIIATGSVGKNLASKTNVYISSSAGARWREALPGPHYYTWGDHGGIITAIAQGMETNELKYSTNEGETWKTFIFSEKPVFVYGLLTEPGEKSTVFTIFGSNKENVHSWLILQVNATDALGVPCTENDYKLWSPSDERGNECLLGHKTVFKRRTPHATCFNGEDFDRPVVVSNCSCTREDYECDFGFKMSEDLSLEVCVPDPEFSGKSYSPPVPCPVGSTYRRTRGYRKISGDTCSGGDVEARLEGELVPCP
notes: also called SORL1 VPS10 domain; R&D Systems 9880-LA
For orientation: koff means the rate constant with which the complex falls apart. Usually kon stands for the rate constant with which the complex forms. B2: the values for the koff in assay [2] and in assay [3] were 0.41 s⁻¹ and 0.0061 s⁻¹, respectively. In addition, the kon amounted to 5e+07 M⁻¹ s⁻¹ in assay [2] and 85000 M⁻¹ s⁻¹ in assay [3]. Further, the figures for the Kd in assay [4], in assay [5] and in assay [6] were 95 nM, 15 nM and 78 nM, respectively.
